This is an account of results in patent US5728677, “Methods of inhibiting T-cell dependent proliferation of peripheral blood lymphocytes using the CD2-binding domain of lymphocyte function associated antigen 3” (Biogen, Inc., dated 1998).

The target in test [1] is T1, CD2 (human, UniProt P06729).
Target sequence in this assay (P06729 25-351): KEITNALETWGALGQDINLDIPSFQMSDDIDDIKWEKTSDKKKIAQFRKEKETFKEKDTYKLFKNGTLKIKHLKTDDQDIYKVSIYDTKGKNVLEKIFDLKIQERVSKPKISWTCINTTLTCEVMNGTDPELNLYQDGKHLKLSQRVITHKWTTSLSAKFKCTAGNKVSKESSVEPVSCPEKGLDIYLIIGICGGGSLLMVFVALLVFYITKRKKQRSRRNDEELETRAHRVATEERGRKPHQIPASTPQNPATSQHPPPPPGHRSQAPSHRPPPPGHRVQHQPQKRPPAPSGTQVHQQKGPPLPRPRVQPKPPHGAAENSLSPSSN
Test [2] has as its target T1, CD2. The source holds these as a separate data set.
The target of test [3] is T1, CD2. The test can be described thus: Jurkat cell binding assay, microscopy. The method, then:
M57/CHO cells, P24/CHO cells and CHO cells (1 ×10^5) were added to separate wells of a 6-well plate (Corning) and washed twice with RPMI Complete Medium. Jurkat cells (CD2^+), obtained as a gift from Dr. Timothy Springer (Dana Farber Cancer Inst., Boston, Mass.) were washed three times with a solution of RPMI, 10% FCS, 4 mM L-glutamine, and then 5 ×10^6 cells were added to each well and incubated for 4 hours at 0° C. Cells were then washed gently three times with RPMI and examined under the microscope at 40X and 100X magnification for cell-cell binding.
The M100/CHO, M101/CHO and M102/CHO transfectants were subjected to a Jurkat cell binding assay, as described in Example 4 above.

Take LFA3TIP (Fc fusion): in the test with CD2 [1], the inhibition of PHA dependent PBL proliferation, suboptimal PHA (0.1 µg/ml) is 70%. The inhibition of PHA dependent PBL proliferation, optimal PHA with CD2 [2] was determined as 41%. Take anti-CD2 monoclonal antibody TS2/18: in the test with CD2 [2], the inhibition of PHA dependent PBL proliferation, optimal PHA was found to be 20%.

B1: M100 deletion mutant of LFA-3 (ligand)
chain: FSQQIYGVVYDEDEYEMESPNITDTMKFFLYVLESLPSPTLTCALTNGSIEVQCMIPEHYNSHRGLIMYSWDCPMEQCKRNSTSIYFKMENDLPQKIQCTLSNPLFNTTSSIILTTCIPSSGHSRHRYALIPIPLAVITTCIVLYMNGILKCDRKPDRTNSN
On to B1, for which, in the test with CD2 [3], the binding result is listed as “no binding”.

B2: M102 deletion mutant of LFA-3 (ligand)
chain: FSQQIYGVVYGNVTFHVPSNVPLKEVLWKKQKDKVAELENSEFRAFSSFKNRVYLDTVSGSLTIYNLTSSDEDEYEMESPNITDTMKFFLYVLESLPSPTLTCALTNGSIEVQCMIPEHYNSHRGLIMYSSGHSRHRYALIPIPLAVITTCIVLYMNGILKCDRKPDRTNSN
Take B2: the binding result with CD2 [3] was “binds”.

B3: M101 deletion mutant of LFA-3 (ligand)
chain: FSQQIYGVVYGNVTFHVPSNVPLKEVLWKKQKDKVAELENSEFRAFSSFKNRVYLDTVSGSLTIYNLTSSWDCPMEQCKRNSTSIYFKMENDLPQKIQCTLSNPLFNTTSSIILTTCIPSSGHSRHRYALIPIPLAVITTCIVLYMNGILKCDRKPDRTNSN
Consider B3, for which the binding result with CD2 [3] is given as “binds”.

B4: M57 deletion mutant of LFA-3 (ligand)
chain: FSQQIYGVVYGNVTFHVPSNVPLKEVLWKKQKDKVAELENSEFRAFSSFKSLTIYNLTSSDEDEYEMESPNITDTMKFFLYVLESLPSPTLTCALTNGSIEVQCMIPEHYNSHRGLIMYSWDCPMEQCKRNSTSIYFKMENDLPQKIQCTLSNPLFNTTSSIILTTCIPSSGHSRHRYALIPIPLAVITTCIVLYMNGILKCDRKPDRTNSN
As for B4, in the test with CD2 [3], the binding result was “no binding”.
